Holding throughout (assay): FP
Assay [1] has as its target talin-1 R7–R8 fragment (residues 1355–1652) with mutation Y1389C (mouse, UniProt P26039 1355-1652, Y1389C).
Assay [2] addresses talin-1 R7–R8 fragment (residues 1355–1652) with mutation R1368W (mouse, UniProt P26039 1355-1652, R1368W).
In assay [3] the target is T1, talin-1 R7–R8 fragment, wildtype (residues 1355–1652) (mouse, UniProt P26039 1355-1652).
T1 chain: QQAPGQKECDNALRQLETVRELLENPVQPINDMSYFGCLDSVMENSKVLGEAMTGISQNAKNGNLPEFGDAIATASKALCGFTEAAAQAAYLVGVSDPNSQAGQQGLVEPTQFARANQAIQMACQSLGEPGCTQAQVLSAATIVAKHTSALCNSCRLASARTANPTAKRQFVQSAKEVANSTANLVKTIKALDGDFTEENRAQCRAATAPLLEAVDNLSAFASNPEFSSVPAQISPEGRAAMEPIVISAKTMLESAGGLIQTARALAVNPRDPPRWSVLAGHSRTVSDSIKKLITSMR

A word on the Kd: it is the constant that tells how readily two partners part at equilibrium. Higher therefore signals lower affinity.

No end group written: not given here.

talin-1 R7–R8 fragment (residues 1355–1652) with mutation Y1389C, sequence (P26039 1355-1652 Y1389C): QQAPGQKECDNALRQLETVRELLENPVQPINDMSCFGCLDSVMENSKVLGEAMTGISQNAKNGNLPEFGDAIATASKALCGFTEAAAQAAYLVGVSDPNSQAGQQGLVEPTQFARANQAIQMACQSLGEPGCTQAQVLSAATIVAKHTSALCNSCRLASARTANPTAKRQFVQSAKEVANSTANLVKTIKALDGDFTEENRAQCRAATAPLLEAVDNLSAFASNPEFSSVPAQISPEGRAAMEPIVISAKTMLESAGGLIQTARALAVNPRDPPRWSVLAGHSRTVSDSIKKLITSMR
talin-1 R7–R8 fragment (residues 1355–1652) with mutation R1368W, sequence (P26039 1355-1652 R1368W): as the sequence (P26039 1355-1652 Y1389C) above, with R14W, C35Y counted along it

As for PYFVETPYGFQLDLDFVKYVDDIQKGNTIKKLNIQKRRKC (BODIPY or Fluorescein dye coupled via the C-terminal cysteine residue) [KANK1 (30–68) peptide], the Kd in assay [1] came out at 350 nM; in assay [2] it was 390 nM; in assay [3], 350 nM.
On to SEDIDQMFSTLLGEMDLLTQSLGVDTC (also: BODIPY or Fluorescein dye coupled via C-terminal Cys) [RIAM (4–30) peptide], for which the equilibrium dissociation constant (Kd) was 3600 nM in assay [1], 3300 nM in assay [2] and 3600 nM in assay [3].

For the origin of these results see article PMC7801617 (2021).
